Substrate in the data set: O=[N+]([O-])c1ccc(O[C@H]2O[C@H](CO)[C@H](O)[C@H](O)[C@H]2O)cc1
In words: purified protein. Type of data set: biochemical, Pseudoalteromonas sp. KMM 701. The note with it: sodium phosphate (0.05 M in table footnote, 0.1 M in methods), pH 7.0, 20 °C.

B1: α-PsGal (Pseudoalteromonas sp. KMM 701) (protein)
chain: MADTKSFYRLDSVNSTVIFDCQSKTPALLYFGKRLSEQTTETMLTQLATRQEVKCAVVEEAPISLSPLLGEGFTGAPGLELVNDSIAWSVGPELQEVRQPSSATVEFVSVDKLRGIEVVHSITLDNNSDVLSAHTVLTNLGDSPLSVNFCAAPTFQLPDSVSKIVSFEGRWSNEFQRQSVDLVLGSFVRENRKGKTSHDVFPGLLVHNENAGEQHGECYGFHLGWSGNNKLRAELLAEGRRYVQMGELLLPGELTLAKGQTYQSPSIYGSFSSEGFSALSRNFHRFVKANLLSQAQREKARPVHYNTWEGIYFDHDVDTLKQLADKVAPLGIERFVLDDGWFKGRRGDNAGLGDWTVDYKIYPDGLSPVIDHVNSLGMEFGIWFEPEMVNPDSDLYRAHPDWVLGSENNEQLSFRNQLVLDLTRSEVVEYLYKAIDDILVEYPTIKYIKWDMNRDINHAGNFDGKPAVHQQTLALYRLIDRIKAAHPGLEIESCSSGGARVDYGVLAHTDRVWTSDSNDALDRLEIQRGCSFFFPSSVMGAHVGPRDCHITGRNVSIEMRAAVSMFGHMGIEMDPRELNDHEYNALKAAIALHKEHREFIHSADLYRLDSDDLSINFGLIDAQKTKALFAYNSVRETPRTAPNKLRFVGLDADAQYTLNLVWPVKFEEYRPSSIAAVNGQTFTGEALMQFGLQMPISFPQTSLIFELNKA
notes: mature ca. 80 kDa; E. coli Rosetta (DE3); GH36
As usually defined, the Km is the concentration of substrate that gives half-maximal velocity. The term Vmax denotes the rate approached at saturating substrate. By kcat is commonly meant the number of substrate molecules converted per active site and unit of time at saturation. In general, kcat/Km refers to the turnover number divided by the Michaelis constant. As for B1, the Km was found to be 400 ± 30 µM, the maximal velocity (Vmax) was determined as 320 µM/min, the catalytic constant (kcat) came out at 324 ± 3.5 s⁻¹ and the kcat/Km was determined as 820000 M⁻¹ s⁻¹.

B2: α-PsGal (Pseudoalteromonas sp. KMM 701; C494N) (protein)
chain: MADTKSFYRLDSVNSTVIFDCQSKTPALLYFGKRLSEQTTETMLTQLATRQEVKCAVVEEAPISLSPLLGEGFTGAPGLELVNDSIAWSVGPELQEVRQPSSATVEFVSVDKLRGIEVVHSITLDNNSDVLSAHTVLTNLGDSPLSVNFCAAPTFQLPDSVSKIVSFEGRWSNEFQRQSVDLVLGSFVRENRKGKTSHDVFPGLLVHNENAGEQHGECYGFHLGWSGNNKLRAELLAEGRRYVQMGELLLPGELTLAKGQTYQSPSIYGSFSSEGFSALSRNFHRFVKANLLSQAQREKARPVHYNTWEGIYFDHDVDTLKQLADKVAPLGIERFVLDDGWFKGRRGDNAGLGDWTVDYKIYPDGLSPVIDHVNSLGMEFGIWFEPEMVNPDSDLYRAHPDWVLGSENNEQLSFRNQLVLDLTRSEVVEYLYKAIDDILVEYPTIKYIKWDMNRDINHAGNFDGKPAVHQQTLALYRLIDRIKAAHPGLEIESNSSGGARVDYGVLAHTDRVWTSDSNDALDRLEIQRGCSFFFPSSVMGAHVGPRDCHITGRNVSIEMRAAVSMFGHMGIEMDPRELNDHEYNALKAAIALHKEHREFIHSADLYRLDSDDLSINFGLIDAQKTKALFAYNSVRETPRTAPNKLRFVGLDADAQYTLNLVWPVKFEEYRPSSIAAVNGQTFTGEALMQFGLQMPISFPQTSLIFELNKA
notes: as for B1
With B2, the Michaelis-Menten constant (Km) was 300 ± 5 µM and the Vmax was determined as 24 µM/min.

Source of the values: publication PMC6213131, “Characterization of Properties and Transglycosylation Abilities of Recombinant α-Galactosidase from Cold-Adapted Marine Bacterium Pseudoalteromonas KMM 701 and Its C494N and D451A Mutants” (Marine Drugs, 2018).
